The values below come from US20260191905A1 (MODERNATX, published 2026).

For assay [1], the target named is T1, human GPC3 recombinant protein (human, UniProt P51654 25-559).
T1 construct: also called huGPC3; Human GPC3 protein
Kind of assay: SPR (Biacore) off-rate screen, periplasmic extract over human GPC3 on CM5; R0 107.0. The procedure:
(§1) Human GPC3 protein in acetate buffer, pH 5.0, was immobilized in a sensor chip CM5 (GE Healthcare; Cat. Nr. BR-1005-30; Lot. Nr.10245232) and successful immobilization was confirmed by using a commercially available human GPC3 antibody (R&D cat. nr. MAB2119) and the anti-GPC3-VHH-Fc (both at 10 μg/mL). Periplasmic extracts from the MP were diluted in Biacore Buffer (0.01 M HEPES pH 7.4, 0.15 M NaCl, 3 mM EDTA, 0.05% P20) and injected over 2 minutes at 30 μL/min. 10 μl of 10 mM NaOH/1M NaCl were injected between samples and off-rates were measured over 5 minutes. Off-rate ([…]) were calculated using BIACORE software 1:1 interaction Langmuir binding model.

Assay [2] has as its target T1, human GPC3 recombinant protein. Description: SPR (Biacore), VHH-His over human GPC3 on CM5; fit 87.8 - 17.34 nM; Rmax 38.9 RU; Chi2 0.636. The procedure:
(§2) Affinities of the 19 VHH-His tagged domains were then determined by BiaCore assay. Human GPC3 protein (Sino biological cat. nr. 10088-H08H-500) was immobilized on CM5 sensor chip (GE Healthcare) as antigen. Purified VHH-His tagged domains were diluted in BiaCore buffer (0.01 M HEPES pH 7.4, 0.15 M NaCl, 3 mM EDTA, 0.05% P20) to 500 nM and injected over 2 minutes at […] followed by a half dilution series to 7.8 nM. 10 μl of 10 mM NaOH/1M NaCl were injected between samples and then off-rate wash was 5 minutes.
(In general: Surface plasmon resonance follows binding to a sensor surface in real time, without labels.)

Assay [3] shares this target. Kind of assay: SPR (Biacore), summary table; Chi2 0.636; Profile 'Very good'.
Assay [4] shares this target. Kind of assay: SPR (Biacore) off-rate screen, periplasmic extract over human GPC3 on CM5; R0 45.4. The procedure: as §1
For assay [5] the target is unchanged. Description: SPR (Biacore) off-rate screen, periplasmic extract over human GPC3 on CM5; R0 56.5. The procedure:
as §1

For assay [6] the target is unchanged. Description: SPR (Biacore) off-rate screen, periplasmic extract over human GPC3 on CM5; R0 41.0. As to the method:
as §1

The target is the same in assay [7]. Kind of assay: SPR (Biacore) off-rate screen, periplasmic extract over human GPC3 on CM5; R0 6.06; asterisk not explained on the sheet. As to the method:
as §1

The target of assay [8] is T2, human GPC3 on HepG2 cells (human, UniProt P51654 25-554).
T2 construct: whole, on cells
Description: FACS, periplasmic extract 1:5 + anti-c-myc + GAM-APC on HepG2, well C3; same on A-431: 697.44.

Assay [9] has as its target T2, human GPC3 on HepG2 cells. Description: FACS, phage-displayed clone on HepG2, well C3; same clone on A-431 (no GPC3): 1.31%. (In flow cytometry, cells or beads pass a laser one at a time.)
Assay [10] has as its target T2, human GPC3 on HepG2 cells. Kind of assay: FACS, phage-displayed clone on HepG2, well C3; same clone on A-431 (no GPC3): 1100.37.
Assay [11] concerns the target T1, human GPC3 recombinant protein. Kind of assay: SPR (Biacore), summary table; Chi2 0.43; Profile 'Good'; FIG. 18 prints 6.64E-09. As to the method:
as §2

The target is the same in assay [12]. Description: SPR (Biacore) off-rate screen, periplasmic extract over human GPC3 on CM5; R0 31.6. As to the method:
as §1

Assay [13] concerns the target T2, human GPC3 on HepG2 cells. Kind of assay: FACS, periplasmic extract 1:5 + anti-c-myc + GAM-APC on HepG2, well C3; same on A-431: 0.12%.
Assay [14] concerns the target T1, human GPC3 recombinant protein. Description: SPR (Biacore), VHH-His over human GPC3 on CM5; fit 250 - 7.8 nM; Rmax 9.47 RU; Chi2 0.43. As to the method:
as §2

Assay [15] has the same target. Description: SPR (Biacore) off-rate screen, periplasmic extract over human GPC3 on CM5; R0 24.6. As to the method: as §1
The target in assay [16] is T2, human GPC3 on HepG2 cells. Description: FACS, periplasmic extract 1:5 + anti-c-myc + GAM-APC on HepG2, well A2; same on A-431: 753.37.
Assay [17] deals with T1, human GPC3 recombinant protein. Description: SPR (Biacore), VHH-His over human GPC3 on CM5; fit 250 - 7.8 nM; Rmax 11.3 RU; Chi2 0.365. The procedure: as §2
The target is the same in assay [18]. Description: SPR (Biacore) off-rate screen, periplasmic extract over human GPC3 on CM5; R0 71.6. As to the method: as §1
The target is the same in assay [19]. Description: SPR (Biacore), summary table; Chi2 0.365; Profile 'Medium'; FIG. 18 prints 3.82E-09.
Assay [20] has as its target T2, human GPC3 on HepG2 cells. Description: FACS, periplasmic extract 1:5 + anti-c-myc + GAM-APC on HepG2, well A2; same on A-431: 0.21%.
For assay [21], the target named is T2, human GPC3 on HepG2 cells. Kind of assay: FACS, phage-displayed clone on HepG2, well A2; same clone on A-431 (no GPC3): 1042.47.
Assay [22] concerns the target T2, human GPC3 on HepG2 cells. Kind of assay: FACS, phage-displayed clone on HepG2, well A2; same clone on A-431 (no GPC3): 0.72%.
Assay [23] has as its target T2, human GPC3 on HepG2 cells. Description: FACS, phage-displayed clone on HepG2, well D3; same clone on A-431 (no GPC3): 1.16%.
The target of assay [24] is T2, human GPC3 on HepG2 cells. Kind of assay: FACS, periplasmic extract 1:5 + anti-c-myc + GAM-APC on HepG2, well D3; same on A-431: 802.83.
Assay [25] addresses T2, human GPC3 on HepG2 cells. Description: FACS, periplasmic extract 1:5 + anti-c-myc + GAM-APC on HepG2, well D3; same on A-431: 0.36%.
Assay [26] concerns the target T1, human GPC3 recombinant protein. Kind of assay: SPR (Biacore), summary table; Chi2 0.59; Profile 'Good'; FIG. 18 prints 5.24E-09. The procedure:
as §2

Assay [27] addresses T2, human GPC3 on HepG2 cells. Kind of assay: FACS, phage-displayed clone on HepG2, well D3; same clone on A-431 (no GPC3): 1102.21.
Assay [28] has as its target T1, human GPC3 recombinant protein. Kind of assay: SPR (Biacore) off-rate screen, periplasmic extract over human GPC3 on CM5; R0 47.2. The procedure: as §1
The target is the same in assay [29]. Description: SPR (Biacore), VHH-His over human GPC3 on CM5; fit 197.5 - 26.0 nM; Rmax 14.1 RU; Chi2 0.59. As to the method:
as §2

Assay [30] shares this target. Kind of assay: SPR (Biacore) off-rate screen, periplasmic extract over human GPC3 on CM5; R0 30.5. The procedure:
as §1

Where a chain is given by its changes, count along the chain named.

T2 sequence (P51654 25-554 limits assumed): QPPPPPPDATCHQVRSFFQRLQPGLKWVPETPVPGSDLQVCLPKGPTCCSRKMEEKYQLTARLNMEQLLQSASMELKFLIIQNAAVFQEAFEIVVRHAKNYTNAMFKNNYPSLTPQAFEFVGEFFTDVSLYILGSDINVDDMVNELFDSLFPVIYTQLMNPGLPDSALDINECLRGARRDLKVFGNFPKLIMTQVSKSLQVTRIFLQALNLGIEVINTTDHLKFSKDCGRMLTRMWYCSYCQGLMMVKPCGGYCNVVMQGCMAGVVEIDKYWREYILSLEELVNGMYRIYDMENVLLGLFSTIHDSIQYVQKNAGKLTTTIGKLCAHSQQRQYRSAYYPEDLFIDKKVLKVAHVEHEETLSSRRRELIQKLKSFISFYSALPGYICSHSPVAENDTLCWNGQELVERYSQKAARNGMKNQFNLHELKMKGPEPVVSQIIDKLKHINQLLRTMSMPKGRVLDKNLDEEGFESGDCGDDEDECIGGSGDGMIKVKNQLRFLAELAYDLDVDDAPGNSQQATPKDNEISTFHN
T1 sequence (P51654 25-559 limits assumed): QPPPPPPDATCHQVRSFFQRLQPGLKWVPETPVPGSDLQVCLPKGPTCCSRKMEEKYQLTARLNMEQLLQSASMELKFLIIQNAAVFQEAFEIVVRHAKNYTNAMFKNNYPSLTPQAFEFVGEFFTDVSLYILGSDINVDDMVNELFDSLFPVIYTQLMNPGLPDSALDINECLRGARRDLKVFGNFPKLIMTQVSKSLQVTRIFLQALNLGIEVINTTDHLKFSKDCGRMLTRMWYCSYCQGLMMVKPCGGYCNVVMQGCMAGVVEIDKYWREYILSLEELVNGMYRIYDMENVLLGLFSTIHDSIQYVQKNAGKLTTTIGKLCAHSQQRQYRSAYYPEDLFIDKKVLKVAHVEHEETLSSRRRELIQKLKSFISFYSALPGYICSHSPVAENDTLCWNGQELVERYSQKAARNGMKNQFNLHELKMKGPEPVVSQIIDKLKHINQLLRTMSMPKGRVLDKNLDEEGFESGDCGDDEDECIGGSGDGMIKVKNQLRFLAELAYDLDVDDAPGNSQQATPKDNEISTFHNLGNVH

B1: anti-GPC3 VHH-His tagged domain VHH2 (VHH)
VHH: QVQLVESGGGLVQPGGSLRLSCAASGFTFSNYLMHWVRQAPGKGLEWLSNINSDGSSTYYADSVKGRFTISRDNSKNTLYLQMNSLRAEDTAVYYCTVGAFDYWGQVTTGTVSS
notes: Produced from a mammalian expression vector as a His fusion; not shown: His tag
On to B1, for which, in assay [1], the dissociation rate constant (koff) (usually the rate constant with which the complex falls apart) was determined as 0.00184 s⁻¹. Besides, in [2], the Ka stood at 3.66e+08 M⁻¹; the Kd (as a rule, the equilibrium constant for the complex coming apart) is 2.73 nM; the off-rate constant (koff) was found to be 0.000967 s⁻¹; the kon – broadly, the second-order rate constant of association – amounted to 354000 M⁻¹ s⁻¹. Besides, the Kd in assay [3] is 2.73 nM.

B2: VH20 (VHH)
VHH: EVQLVESGGGLVQPGGSLRLSCAASGFTFSSYAMSWVRQAPGKEPEWISSISGSGSSTYYADSLKGRFTISRDNSKNTLYLQMNSLRAEDTAVYYCSKDPRFGEPPFDYWGQGTTVTVSS
notes: also called VHH20
For the molecule B2, the dissociation rate constant (koff) in assay [4] worked out at 0.00249 s⁻¹.

B3: VH22 (VHH)
VHH: B2 VHH with I48V, S54G, N84D, K98R, T115L
notes: also called VHH22
With B3, the off-rate (koff) in [5] was 0.00282 s⁻¹.

B4: VH34 (VHH)
VHH: B2 VHH with E1Q, Q13R, I48V, S54G, K98R, T115L
notes: also called VHH34
On to B4, for which the koff in assay [6] stood at 0.00507 s⁻¹.

B5: VH30 (VHH)
VHH: B2 VHH with E1Q, T28I, I48V, S54G, K65E, G103F, T115L
notes: also called VHH30
Turning to B5, the off-rate (koff) in assay [7] was 0.00983 s⁻¹.

B6: anti-GPC3 VHH-His tagged domain VHH6 (VHH)
VHH: B2 VHH with E1Q, T28I, I48V, S54G, K65E
notes: as for B1
As for B6, the Mean FL4-A in assay [8] was 915. Further, in assay [9], the % of Binding was 68.7%. This molecule also showed a Mean FL2-A in [10] of 43500. Also, the Kd in assay [11] stood at 4.34 nM. In addition, in [12], the off-rate constant (koff) is 0.00221 s⁻¹. Besides, the % of Binding in assay [13] was 0.64%. In addition, in [14], the Ka came to 1.51e+08 M⁻¹, the dissociation constant (Kd) worked out at 6.64 nM, the off-rate constant (koff) turned out to be 0.00197 s⁻¹ and the association rate constant (kon) amounted to 296000 M⁻¹ s⁻¹.

B7: VH24 (VHH)
VHH: B2 VHH with I48V, S54G, S56T, K65E, T115L
notes: also called VHH24
Turning to B7, the koff in [15] was 0.00367 s⁻¹.

B8: anti-GPC3 VHH-His tagged domain VHH13 (VHH)
VHH: B2 VHH with I48V, S54G, S56G, S85R, S97A, K98R, R101M, P105R, T115L
notes: as for B1
With B8, the Mean FL4-A in assay [16] was determined as 752. Further, the Ka in assay [17] stood at 2.62e+08 M⁻¹. Besides, the results for the dissociation constant Kd in [17] and in assay [19] were 3.82 nM and 3.57 nM, respectively. Besides, the figures for the dissociation rate constant (koff) in assay [17] and in assay [18] were 0.00538 s⁻¹ and 0.00607 s⁻¹, respectively. Also, the kon in assay [17] amounted to 1.41e+06 M⁻¹ s⁻¹. Further, the % of Binding in assay [20] stood at 0.3%; in [22] it was 61.4%. Further, in [21], the Mean FL2-A is 26600.

B9: anti-GPC3 VHH-His tagged domain VHH5 (VHH)
VHH: B2 VHH with I48V, S54G, T58A, K98R
notes: as for B1
For B9, the figures for the % of Binding in assay [23] and in assay [25] were 74.3% and 0.5%, respectively. For the same molecule, the Mean FL4-A in [24] was found to be 812. In addition, the Kd in assay [26] worked out at 3.68 nM; in assay [29], 5.24 nM. The molecule also showed a Mean FL2-A in [27] of 57900. Also, the off-rate (koff) was determined as 0.00366 s⁻¹ in assay [28] and 0.00253 s⁻¹ in assay [29]. Further, the Ka in [29] was found to be 1.91e+08 M⁻¹. Besides, the on-rate (kon) in assay [29] is 484000 M⁻¹ s⁻¹.

B10: VH25 (VHH)
VHH: B2 VHH with P45S, I48V, T115L
notes: also called VHH25
On to B10, for which the koff in [30] came to 0.00378 s⁻¹.
